B1: recombinant human IL-26 (ligand, UniProt Q9NPH9 22-171, looked up)
chain: KHKQSSFTKSCYPRGTLSQAVDALYIKAAWLKATIPEDRIKNIRLLKKKTKKQFMKNCQFQEQLLSFFMEDVFGQLQLQGCKKIRFVEDFHSLRQKLSHCISCASSAREMKSITRMKRIFYRIGNKGIYKAISELDILLSWIKKLLESSQ
notes: In some functional rows the IL-26 is natural IL-26 in TH17 cell supernatants, as said in the readout; also called rhIL-26; AK155
B2: anti-IL-26 mouse monoclonal antibody clone 142-84-B1 (antibody, V domains shown)
VH: QVQLQQSGAELVRPGASVTLSCKASGFTFPDYEIHWVRQTPVHGLEWIGGIDPETGDTANNQKFKGKATLTADTSSSTAYMELRSLTSEDSAVYYCTRFYGSFDYWDQGTTLTVSS
VL: NIMMTQSPSSLAVSAGEKVTLSCKSSQSVLYSSNQKNYLAWYQQKPGQSPKLLIYWASTRESGVPDRFTGSGSGTDFTLTISSVQAEDLAVYYCHQYLSSYTFGGGTKLEIK
notes: Mouse hybridoma antibody, IgG1; also called clone 84

How the values were obtained:
[1] = biological target: the molecule itself; assay: small angle X-ray scattering (SAXS) of rhIL-26, self-association
Experimental: IL-26 was suspended in 16 mM sodium phosphate buffer, pH 6.5, 560 mM NaCl, 8% glycerol, 2 mM β-mercaptoethanol and concentrated to 1.1 mg/ml. Data were recorded at the ALS, Berkeley, Calif., beamline 12.3.1. (SIBYLS) at 10° C. using a wavelength of 1 A, for values of the momentum transfer vector q=(4π sin θ)/λ between 0.01 and 0.32 Å-1. The same sample was sequentially exposed to X-rays for 0.5s, 1s and 5s. Samples containing buffer only were measured before and after protein samples. The buffer contributions were subtracted from protein scattering data using the ogre new software program available at SIBYLS. Data were not affected by radiation damage as indicated by a constant Rg of the Guinier region for subsequent sample exposures. A combined SAXS pattern was obtained through scaling and merging selected regions of buffer-subtracted scattering pattern for the 0.5s, 1s and 5s exposures. Data between q=0.01 and 0.13 Å-1 were analyzed using PRIMUS, SASREF and DAMMIF of the ATSAS software package.

recombinant human IL-26 = biological target: B1; assay: ELISA screen of hybridomas

| binding result (recombinant human IL-26) | Binder | binding result [1] |
| --- | --- | --- |
|  | B1 | binds |
| binds | B2 |  |

From US20180207271A1 (CENTRE HOSPITALIER UNIVERSITAIRE VAUDOIS CHUV, published 2018)
